Patent publication US20160158293A1, “Treatment of Ocular Conditions Using Progenitor Cells” (JANSSEN BIOTECH, INC., priority 2014, published 2016)

Legend:
[1] = tested on: retinal ganglion cells (RGCs); assay: Synapse assay: co-localized Bassoon/Homer synaptic puncta by immunocytochemistry; assay type: cell-based, Sprague-Dawley rat; conditions: 32 μM GBP added together with UCM
Text: (§1) Retinal Ganglion Cells: Retinal ganglion cells (RGCs) were purified by sequential immuno-panning from P7 (postnatal day 7) Sprague-Dawley rat retinas (Charles River, Wilmington, Mass.) of either sex as previously described (Winzeler A, Wang J T., Cold Spring Harbor Protocols, 2013; 643-652). Briefly, retinas were dissected and dissociated with papain (6 U/mL, Worthington, Burlingame, Calif.). Dissociated cells were panned first with Bandeiraea Simplicifolia Lectin I (BSL, Vector laboratories, Burlingame, Calif.) coated petri dishes to remove immune cells, cell debris and fibroblasts. The unbound cells were transferred to a petri dish coated with anti-Thy1 (clone T11D7) antibody for specific isolation of RGCs. The purified RGCs were gently trypsinized and re-plated onto poly-D-Lysine (PDL) and laminin-coated glass coverslips in 24-well plates (35,000 cells/coverslip). […]
Synapse formation was assessed by immunocytological analyses of the co-localization of pre-(Bassoon) and post-synaptic (Homer) markers, and electrophysiology. […] Morphologically healthy single cells that were at least two cell diameters from their nearest neighbor were identified randomly by DAPI fluorescence. […]

[2] = tested on: retinal ganglion cells (RGCs); assay: Neurite outgrowth assay under growth-inhibiting conditions (CSPG, Nogo-A, MBP); assay type: cell-based, Sprague-Dawley rat
Text: as §1, with “RGCs.” for “RGCs. The purified RGCs were gently trypsinized and re-plated onto poly-D-Lysine (PDL) and laminin-coated glass coverslips in 24-well plates (35,000 cells/coverslip).”
To test neurite outgrowth under pathologic (i.e. growth-inhibiting) culture conditions, the RGCs (1,500 cells/coverslip) were seeded onto coverslips that were coated with various concentrations of chondroitin sulfate proteoglycan (CSPG, EMD Millipore, Billerica, Mass.), Nogo-A (R&D Systems, Minneapolis, Minn.) or in the presence of soluble myelin basic protein (MBP, 10 ug/mL, Sigma-Aldrich, St. Louis, Mo.). […] At least 30 cells per condition were imaged and analyzed per experiment and the results presented are the average of 2-3 independent experiments. Neuronal morphology was analyzed using neurite outgrowth application module in Metamorph software (Molecular Devices). […]

NCC1(CC(=O)O)CCCCC1 [GBP, Gabapentin]
UCM-induced synapse formation in the presence of gabapentin [1]: blocked the synaptogenic factors

B1: Nogo-A: myelin protein Nogo-A (R&D Systems), growth-inhibiting coating (protein, UniProt Q9NQC3 1-1192, looked up)
Reticulon-4: MEDLDQSPLVSSSDSPPRPQPAFKYQFVREPEDEEEEEEEEEEDEDEDLEELEVLERKPAAGLSAAPVPTAPAAGAPLMDFGNDFVPPAPRGPLPAAPPVAPERQPSWDPSPVSSTVPAPSPLSAAAVSPSKLPEDDEPPARPPPPPPASVSPQAEPVWTPPAPAPAAPPSTPAAPKRRGSSGSVDETLFALPAASEPVIRSSAENMDLKEQPGNTISAGQEDFPSVLLETAASLPSLSPLSAASFKEHEYLGNLSTVLPTEGTLQENVSEASKEVSEKAKTLLIDRDLTEFSELEYSEMGSSFSVSPKAESAVIVANPREEIIVKNKDEEEKLVSNNILHNQQELPTALTKLVKEDEVVSSEKAKDSFNEKRVAVEAPMREEYADFKPFERVWEVKDSKEDSDMLAAGGKIESNLESKVDKKCFADSLEQTNHEKDSESSNDDTSFPSTPEGIKDRSGAYITCAPFNPAATESIATNIFPLLGDPTSENKTDEKKIEEKKAQIVTEKNTSTKTSNPFLVAAQDSETDYVTTDNLTKVTEEVVANMPEGLTPDLVQEACESELNEVTGTKIAYETKMDLVQTSEVMQESLYPAAQLCPSFEESEATPSPVLPDIVMEAPLNSAVPSAGASVIQPSSSPLEASSVNYESIKHEPENPPPYEEAMSVSLKKVSGIKEEIKEPENINAALQETEAPYISIACDLIKETKLSAEPAPDFSDYSEMAKVEQPVPDHSELVEDSSPDSEPVDLFSDDSIPDVPQKQDETVMLVKESLTETSFESMIEYENKEKLSALPPEGGKPYLESFKLSLDNTKDTLLPDEVSTLSKKEKIPLQMEELSTAVYSNDDLFISKEAQIRETETFSDSSPIEIIDEFPTLISSKTDSFSKLAREYTDLEVSHKSEIANAPDGAGSLPCTELPHDLSLKNIQPKVEEKISFSDDFSKNGSATSKVLLLPPDVSALATQAEIESIVKPKVLVKEAEKKLPSDTEKEDRSPSAIFSAELSKTSVVDLLYWRDIKKTGVVFGASLFLLLSLTVFSIVSVTAYIALALLSVTISFRIYKGVIQAIQKSDEGHPFRAYLESEVAISEELVQKYSNSALGHVNCTIKELRRLFLVDDLVDSLKFAVLMWVFTYVGALFNGLTLLILALISLFSVPVIYERHQAQIDHYLGLANKNVKDAMAKIQAKIPGLKRKAE
neurite growth inhibited ([2]; at 2 μg/cm^2 coating): more than 50% | coating concentration from which neurite outgrowth is hindered/blocked ([2]; coated coverslips): 1 μg/cm^2
